Key:
[1] = target: T1, CD3D/CD3E heterodimer (Sino Biologicals Cat. No. CT038-H2508H) (human, UniProt P04234 22-105; P07766 23-126); test: ELISA, antigen coated
T1 construct: bought; also called CD3 antigen; human CD3

[2] = target: T2, Sheep Fc-CD52 fusion protein (Absolute Antibody Cat. No. PR00205) (human, UniProt P31358 25-36); test: ELISA, antigen coated, antibody 5 µg/mL
T2 construct: bought; also called CD52 antigen; human CD52; not shown: sheep Fc

[3] = target: T1, CD3D/CD3E heterodimer (Sino Biologicals …); test: ELISA, antigen coated, antibody 5 µg/mL
[4] = target: T3, Histidine-tagged recombinant human FcγRI (CD64) (human, UniProt P12314 16-288, limits assumed); test: SPR, His-FcγRI captured; Expt 2 Rep 2;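 further: antibody analyte injected at 100 µg/mL for 1 min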
T3 construct: bought

[5] = target: T3, Histidine-tagged recombinant human …; test: SPR, His-FcγRI captured; CHO-produced; Expt 1 Rep 1;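 further: antibody analyte injected at 100 µg/mL for 1 min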
[6] = target: T3, Histidine-tagged recombinant human …; test: SPR, His-FcγRI captured; Expt 1 Rep 1;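 further: antibody analyte injected at 100 µg/mL for 1 min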
[7] = target: T3, Histidine-tagged recombinant human …; test: SPR, His-FcγRI captured; CHO-produced; Expt 1 Rep 2;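 further: antibody analyte injected at 100 µg/mL for 1 min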
human FcγRIIA (R131) = target: T4, human FcγRIIA (R131) (human, UniProt P12318 34-218, limits assumed); test: SPR, receptor captured on anti-His chip
T4 construct: bought; R131 allele
T4 sequence (looked up): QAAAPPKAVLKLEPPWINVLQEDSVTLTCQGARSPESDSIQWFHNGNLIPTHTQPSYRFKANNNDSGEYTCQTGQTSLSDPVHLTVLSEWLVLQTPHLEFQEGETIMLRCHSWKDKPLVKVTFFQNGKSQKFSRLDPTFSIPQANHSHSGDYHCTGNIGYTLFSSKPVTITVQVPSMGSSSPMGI

human FcγRIIIA (F158) = target: T5, human FcγRIIIA (F158) (human, UniProt P08637 17-208); test: SPR, receptor captured on anti-His chip
T5 construct: bought; F158 allele

human FcγRIIB = target: T6, human FcγRIIB (human, UniProt P31994 43-217); test: SPR, receptor captured on anti-His chip
T6 construct: bought
T6 sequence (looked up): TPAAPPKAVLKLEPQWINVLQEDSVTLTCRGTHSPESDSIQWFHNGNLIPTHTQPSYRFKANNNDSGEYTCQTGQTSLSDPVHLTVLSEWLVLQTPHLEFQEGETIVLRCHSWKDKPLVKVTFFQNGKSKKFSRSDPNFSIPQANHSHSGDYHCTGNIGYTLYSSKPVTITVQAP

[8] = target: T7, human FcγRIIIB (NA2 allotype) (human, UniProt O75015 17-200, limits assumed); test: SPR, receptor captured on anti-His chip
T7 construct: bought; NA2 allotype

[9] = target: T3, Histidine-tagged recombinant human …; test: SPR, His-FcγRI captured; CHO-produced; Expt 2 Rep 1;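 further: antibody analyte injected at 100 µg/mL for 1 min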
human FcRn [10] = target: T8, human FcRn (human, UniProt P55899 24-297; P61769 21-119); test: SPR pH 6.0, FcRn captured; Expt 1
T8 construct: bought

cynomolgus monkey FcRn = target: T9, cynomolgus monkey FcRn (cynomolgus monkey, UniProt Q8SPV9 24-297; Q8SPW0 21-119); test: SPR pH 6.0, FcRn captured
T9 construct: bought; also called cynomolgus FcRn

[11] = target: T3, Histidine-tagged recombinant human …; test: SPR, His-FcγRI captured; CHO-produced; Expt 2 Rep 2;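 further: antibody analyte injected at 100 µg/mL for 1 min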
[12] = target: T3, Histidine-tagged recombinant human …; test: SPR, His-FcγRI captured; Expt 2 Rep 1;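 further: antibody analyte injected at 100 µg/mL for 1 min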
rabbit FcγRI = target: T10, rabbit FcγRI (rabbit); test: SPR, receptor captured on anti-His chip
T10 construct: bought; captured on anti-histidine chip

[13] = target: T3, Histidine-tagged recombinant human …; test: SPR, receptor captured on anti-His chip
rat FcγRI = target: T11, rat FcγRI (rat, UniProt A0A0B4J2J0 16-285); test: SPR, receptor captured on anti-His chip
T11 construct: bought; captured on anti-histidine chip
T11 sequence: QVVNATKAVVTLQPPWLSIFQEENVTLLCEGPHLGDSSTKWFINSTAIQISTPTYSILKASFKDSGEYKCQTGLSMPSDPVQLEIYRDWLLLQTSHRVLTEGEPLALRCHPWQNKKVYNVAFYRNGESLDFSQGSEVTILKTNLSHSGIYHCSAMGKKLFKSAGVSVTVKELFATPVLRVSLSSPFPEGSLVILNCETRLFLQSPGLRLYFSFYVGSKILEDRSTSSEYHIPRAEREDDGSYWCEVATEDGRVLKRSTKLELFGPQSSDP

mouse FcγRI = target: T12, mouse FcγRI (mouse, UniProt P26151 25-297); test: SPR, receptor captured on anti-His chip
T12 construct: bought; captured on anti-histidine chip
T12 sequence (looked up): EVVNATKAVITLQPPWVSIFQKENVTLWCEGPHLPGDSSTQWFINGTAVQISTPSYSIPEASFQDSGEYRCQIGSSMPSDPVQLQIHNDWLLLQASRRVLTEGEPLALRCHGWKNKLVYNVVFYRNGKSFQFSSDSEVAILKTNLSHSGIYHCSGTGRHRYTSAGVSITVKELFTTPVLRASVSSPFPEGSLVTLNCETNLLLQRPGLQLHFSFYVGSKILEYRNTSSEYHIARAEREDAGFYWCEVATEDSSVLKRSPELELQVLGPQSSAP

human FcRn [14] = target: T8, human FcRn; test: SPR pH 6.0, FcRn captured; Expt 2
[15] = target: T3, Histidine-tagged recombinant human …; test: SPR, His-FcγRI captured; Expt 1 Rep 2;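 further: antibody analyte injected at 100 µg/mL for 1 min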

T8 sequence (P55899 24-297 limits assumed, chain 1 of 2): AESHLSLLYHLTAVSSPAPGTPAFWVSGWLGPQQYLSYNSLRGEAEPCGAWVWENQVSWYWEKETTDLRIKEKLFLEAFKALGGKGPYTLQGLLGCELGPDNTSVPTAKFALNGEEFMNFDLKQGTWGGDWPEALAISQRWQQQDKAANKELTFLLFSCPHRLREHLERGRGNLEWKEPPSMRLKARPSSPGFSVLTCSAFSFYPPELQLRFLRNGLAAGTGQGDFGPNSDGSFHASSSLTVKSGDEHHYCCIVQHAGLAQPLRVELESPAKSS
T8 sequence (P61769 21-119 limits assumed, chain 2 of 2): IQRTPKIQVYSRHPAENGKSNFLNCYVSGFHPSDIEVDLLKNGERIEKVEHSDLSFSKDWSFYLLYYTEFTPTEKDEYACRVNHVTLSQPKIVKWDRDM
T5 sequence (P08637 17-208 limits assumed): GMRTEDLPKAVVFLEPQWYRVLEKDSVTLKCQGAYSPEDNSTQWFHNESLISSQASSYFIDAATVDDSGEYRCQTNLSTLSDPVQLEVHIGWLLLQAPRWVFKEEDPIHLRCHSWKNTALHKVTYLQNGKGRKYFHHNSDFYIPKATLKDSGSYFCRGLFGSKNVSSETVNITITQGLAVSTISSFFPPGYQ

B1: anti-CD52 (alemtuzumab variable regions) human IgG1 wild type reference (antibody)
heavy: not shown
light: not shown
notes: also called 4-1; wild-type CD52 antibody
For B1, the binding result [1] was “no binding (tested: 5 µg/mL)”, the “Mean Absorbance” value [2] was 1.53 absorbance and the “Mean Absorbance” value [3] was 0.009 absorbance.

B2: anti-CD20 human IgG1 L234A/L235A (LALA) (antibody)
heavy: not shown
light: QIVLSQSPAILSASPGEKVTMTCRASSSVSYIHWFQQKPGSSPKPWIYATSNLASGVPVRFSGSGSGTSYSLTISRVEAEDAATYYCQQWTSNPPTFGGGTKLEIKRTVAAPSVFIFPPSDEQLKSGTASVVCLLNNFYPREAKVQWKVDNALQSGNSQESVTEQDSKDSTYSLSSTLTLSKADYEKHKVYACEVTHQGLSSPVTKSFNRGEC
notes: 2-65 and 10.16 are separate lots; also called 2-65; 10.16
In the case of B2, the “Corrected response (RU)” value [4] is reported as 478 RU, the “Corrected response (RU)” value [5] is reported as 597 RU and the “Corrected response (RU)” value [6] is reported as 752 RU. For the same binder, the “Corrected response (RU)” value [7] was 577 RU, the “Corrected response (RU)” value (human FcγRIIA (R131)) was 21.8 RU and the “Corrected response (RU)” value (human FcγRIIIA (F158)) was 57.4 RU. The “Corrected response (RU)” value (human FcγRIIB) was 13.2 RU, the “Corrected response (RU)” value [8] was 16 RU and the “Corrected response (RU)” value [9] was 452 RU. The “Corrected response (RU)” value (human FcRn [10]) was 612 RU, the “Corrected response (RU)” value (cynomolgus monkey FcRn) was 1390 RU and the “Corrected response (RU)” value [11] was 440 RU. The “Corrected response (RU)” value [12] was 524 RU, the “Corrected response (RU)” value (rabbit FcγRI) was 141 RU and the “Corrected response (RU)” value [13] was 832 RU. The “Corrected response (RU)” value (rat FcγRI) was 2.3 RU, the “Corrected response (RU)” value (mouse FcγRI) was 6.3 RU and the “Corrected response (RU)” value (human FcRn [14]) was 614 RU. For the same binder, the “Corrected response (RU)” value [15] was 654 RU.

From patent US20230235013A1 (MABSOLVE, published 2023)
